US20120135923A1 (IPSEN PHARMA S A S, published 2012)
Bridge positions count the residues as written; N and C are the ends. Square brackets hold non-standard residues; d marks the D form. Ends that are not written are not given here. 2Nal = N[C@@H](Cc1ccc2ccccc2c1)C(=O)O; d2Nal = N[C@H](Cc1ccc2ccccc2c1)C(=O)O; Bta = N[C@@H](Cc1csc2ccccc12)C(=O)O; hPhe = N[C@@H](CCc1ccccc1)C(=O)O; dCha = N[C@H](CC1CCCCC1)C(=O)O; Pen = CC(C)(S)[C@H](N)C(=O)O; Nle = CCCC[C@H](N)C(=O)O; GABA = NCCCC(=O)O; βAla = NCCC(=O)O

B1: Ac-D-Arg-c(Asp-His-D-Phe-Arg-Trp-Ala-Lys)-NH2 (peptide)
peptide: Ac-[dR]DH[dF]RWAK-NH2
modifications: lactam 2-8
B2: Ac-Nle-c(Cys-D-Ala-His-D-Phe-Arg-Trp-Gly-Cys)-NH2 (peptide)
peptide: Ac-[Nle]C[dA]H[dF]RWGC-NH2
modifications: disulfide 2-9
SMILES: CCCC[C@H](NC(C)=O)C(=O)N[C@H]1CSSC[C@@H](C(N)=O)NC(=O)CNC(=O)[C@H](Cc2c[nH]c3ccccc23)NC(=O)[C@H](CCCNC(=N)N)NC(=O)[C@@H](Cc2ccccc2)NC(=O)[C@H](Cc2c[nH]cn2)NC(=O)[C@@H](C)NC1=O
B3: Ac-hPhe-c(Asp-His-D-Phe-Arg-Trp-Gaba-Lys)-NH2 (peptide)
peptide: Ac-[hPhe]DH[dF]RW[GABA]K-NH2
modifications: lactam 2-8
B4: Ac-Nle-c(Cys-D-Cha-His-D-Phe-Arg-Trp-Cys)-NH2 (peptide)
peptide: Ac-[Nle]C[dCha]H[dF]RWC-NH2
modifications: disulfide 2-8
SMILES: CCCC[C@H](NC(C)=O)C(=O)N[C@H]1CSSC[C@@H](C(N)=O)NC(=O)[C@H](Cc2c[nH]c3ccccc23)NC(=O)[C@H](CCCNC(=N)N)NC(=O)[C@@H](Cc2ccccc2)NC(=O)[C@H](Cc2c[nH]cn2)NC(=O)[C@@H](CC2CCCCC2)NC1=O
B5: Ac-Nle-c(Cys-D-Val-His-D-Phe-Arg-Trp-Cys)-NH2 (peptide)
peptide: Ac-[Nle]C[dV]H[dF]RWC-NH2
modifications: disulfide 2-8
B6: Ac-c(Cys-Glu-His-D-Phe-Arg-2-Nal-Ala-Cys)-NH2 (peptide)
peptide: Ac-CEH[dF]R[2Nal]AC-NH2
modifications: disulfide 1-8
B7: Ac-Nle-c(Asp-His-D-2-Nal-Arg-Trp-Ala-Lys)-NH2 (peptide)
peptide: Ac-[Nle]DH[d2Nal]RWAK-NH2
modifications: lactam 2-8
B8: Ac-Nle-c(Cys-D-Ile-His-D-Phe-Arg-Trp-Cys)-NH2 (peptide)
peptide: Ac-[Nle]C[dI]H[dF]RWC-NH2
modifications: disulfide 2-8
B9: Ac-Nle-c(Asp-D-Ala-His-D-Phe-Arg-Bal-Ala-Lys)-NH2 (peptide)
peptide: Ac-[Nle]D[dA]H[dF]R[Bta]AK-NH2
modifications: lactam 2-9
B10: Hydantoin(C(O)-(Arg-Gly))-c(Cys-Glu-His-D-Phe-Arg-Trp-Cys)-NH2 (peptide)
peptide: RGCEH[dF]RWC-NH2
modifications: disulfide 3-9; also: hydantoin ring from C(O) with Arg1-Gly2
B11: Hydantoin(C(O)-(Gly-Arg))-c(Cys-Glu-His-D-Phe-Arg-Trp-Cys)-NH2 (peptide)
peptide: GRCEH[dF]RWC-NH2
modifications: disulfide 3-9; also: hydantoin ring from C(O) with Gly1-Arg2
B12: Hydantoin(C(O)-(Arg-Gly))-c(Cys-D-Ala-His-D-2-Nal-Arg-Trp-Cys)-NH2 (peptide)
peptide: RGC[dA]H[d2Nal]RWC-NH2
modifications: disulfide 3-9; also: N-terminal hydantoin: C(O) bridges Arg1 N-alpha and Gly2 N, bridge at N via C(O), other end not in the chain
B13: Ac-c(Cys-Glu-His-D-2-Nal-Arg-2-Nal-Ala-Cys)-Pro-Pro-Arg-Asp-β-[…]NH2 (peptide)
peptide: Ac-CEH[d2Nal]R[2Nal]ACPPRD[βAla]RRRRRQRRR-NH2
modifications: disulfide 1-8
SMILES: CC(=O)N[C@H]1CSSC[C@@H](C(=O)N2CCC[C@H]2C(=O)N2CCC[C@H]2C(=O)N[C@@H](CCCNC(=N)N)C(=O)N[C@@H](CC(=O)O)C(=O)NCCC(=O)N[C@@H](CCCNC(=N)N)C(=O)N[C@@H](CCCNC(=N)N)C(=O)N[C@@H](CCCNC(=N)N)C(=O)N[C@@H](CCCNC(=N)N)C(=O)N[C@@H](CCCNC(=N)N)C(=O)N[C@@H](CCC(N)=O)C(=O)N[C@@H](CCCNC(=N)N)C(=O)N[C@@H](CCCNC(=N)N)C(=O)N[C@@H](CCCNC(=N)N)C(N)=O)NC(=O)[C@H](C)NC(=O)[C@H](Cc2ccc3ccccc3c2)NC(=O)[C@H](CCCNC(=N)N)NC(=O)[C@@H](Cc2ccc3ccccc3c2)NC(=O)[C@H](Cc2c[nH]cn2)NC(=O)[C@H](CCC(=O)O)NC1=O
B14: Ac-c(Cys-Glu-His-D-2-Nal-Arg-Bal-Ala-Cys)-Pro-Pro-Lys-Asp-β-[…]NH2 (peptide)
peptide: Ac-CEH[d2Nal]R[Bta]ACPPKD[βAla]RRKRRQRRR-NH2
modifications: disulfide 1-8
B15: Ac-c(Cys-Glu-His-D-2-Nal-Arg-2-Nal-Ala-Cys)-Pro-Pro-Lys-Asp-β-[…]NH2 (peptide)
peptide: Ac-CEH[d2Nal]R[2Nal]ACPPKD[βAla]GRKRRRQRRR-NH2
modifications: disulfide 1-8
B16: Hydantoin(C(O)-(Nle-Gly))-c(Cys-D-Ala-His-D-Phe-Arg-Trp-Pen)-NH2 (peptide)
peptide: [Nle]GC[dA]H[dF]RW[Pen]-NH2
modifications: disulfide 3-9; also: N-terminal hydantoin: C(O) bridges X1 N-terminal N and G2 backbone N, bridge at N via C(O), other end not in the chain
B17: Hydantoin(C(O)-(Gly-Gly))-c(Cys-Glu-His-D-Phe-Arg-Trp-Cys)-NH2 (peptide)
peptide: GGCEH[dF]RWC-NH2
modifications: disulfide 3-9; also: hydantoin ring from C(O) with Gly1-Gly2
B18: Ac-c(Cys-Glu-His-D-2-Nal-Arg-2-Nal-Ala-Cys)-Pro-Pro-Lys-Asp-β-[…]NH2 (peptide)
peptide: Ac-CEH[d2Nal]R[2Nal]ACPPKD[βAla]RRRRRQRRR-NH2
modifications: disulfide 1-8
B19: Hydantoin(C(O)-(Nle-Gly))-c(Cys-Glu-His-D-Phe-Arg-Trp-Cys)-NH2 (peptide)
peptide: [Nle]GCEH[dF]RWC-NH2
modifications: disulfide 3-9; also: N-terminal hydantoin: C(O) bridges X1 N-terminal N and G2 backbone N, bridge at N via C(O), other end not in the chain
B20: c[Hydantoin(C(O)-(Asp-His))-D-2-Nal-Arg-Trp-Lys]-NH2 (peptide)
peptide: DH[d2Nal]RWK-NH2
modifications: lactam 1-6; also: hydantoin ring: N-terminal N of Asp1 and backbone N of His2 bridged by one C(O), bridge at N via C(O), other end not in the chain

Each binder was assayed against T1, hMC3-R (human, UniProt P41968 1-323) (assay: competition with [125I]-NDP-α-MSH, CHO-K1 membranes).
T1 construct: whole, on cells; Assayed as membranes of CHO-K1 cells expressing the receptor; also called hMC-R receptor subtype 3; melacortin-3 (MC3-R)
T1 sequence (P41968 whole entry): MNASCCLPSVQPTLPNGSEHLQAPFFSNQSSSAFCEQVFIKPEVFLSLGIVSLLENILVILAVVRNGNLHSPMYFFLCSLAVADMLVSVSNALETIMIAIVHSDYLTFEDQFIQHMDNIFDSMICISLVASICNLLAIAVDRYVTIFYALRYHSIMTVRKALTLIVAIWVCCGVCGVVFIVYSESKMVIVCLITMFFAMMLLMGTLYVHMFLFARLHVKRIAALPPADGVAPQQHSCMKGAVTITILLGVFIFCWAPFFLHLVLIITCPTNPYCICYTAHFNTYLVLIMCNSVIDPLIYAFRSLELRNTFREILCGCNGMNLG
Method: (§1) Cellular membranes used for the in vitro receptor binding assays were obtained from transgenic CHO-K1 cells stably expressing hMC-R receptor subtypes 1, 3, 4 or 5. […] The pellets were resuspended in the same buffer and centrifuged at 50,000 g for 10 minutes at approximately 4° C. The washed pellets containing the cellular membranes were stored at approximately −80° C.
(§2) Competitive inhibition of [¹²⁵I](Tyr²)-(Nle⁴-D-Phe⁷)α-MSH ([¹²⁵I]-NDP-α-MSH, Amersham Biosciences®) binding was carried out in polypropylene 96 well plates. Cell membranes (1-10 μg protein/well) prepared as described above were incubated in 50 mM Tris-HCl at pH 7.4 containing 0.2% bovine serum albumin (BSA), 5 mM MgCl₂, 1 mM CaCl₂ and 0.1 mg/mL bacitracin, with increasing concentrations of the test compound and 0.1-0.3 nM […] for approximately 90-120 minutes at approximately 37° C. Bound [¹²⁵I]-NDP-α-MSH ligand was separated from free [¹²⁵I]-NDP-α-MSH by filtration through GF/C glass fiber filter plates (Unifilter®; Packard) presoaked with 0.1% (w/v) polyethylenimine (PEI), using a Packard Filtermate® harvester. Filters were washed three times with 50 mM Tris-HCl at pH 7.4 at a temperature of approximately 0-4° C. and then assayed for radioactivity using a Packard Topcount® scintillation counter. Binding data were analyzed by computer-assisted non-linear regression analysis (XL fit; IDBS).

Row | Binder | Ki
1 | B1 | 45.5 nM
2 | B2 | 149 nM
3 | B3 | 25.2 nM
4 | B4 | 2.08 nM
5 | B5 | 104 nM

These binders were tested against T2, hMC1-R (human, UniProt Q01726 1-317) in the same assay as above.
T2 construct: whole, on cells; Assayed as membranes of CHO-K1 cells expressing the receptor; also called hMC-R receptor subtype 1; melanocyte-specific receptor (MC1-R)
T2 sequence (Q01726 whole entry): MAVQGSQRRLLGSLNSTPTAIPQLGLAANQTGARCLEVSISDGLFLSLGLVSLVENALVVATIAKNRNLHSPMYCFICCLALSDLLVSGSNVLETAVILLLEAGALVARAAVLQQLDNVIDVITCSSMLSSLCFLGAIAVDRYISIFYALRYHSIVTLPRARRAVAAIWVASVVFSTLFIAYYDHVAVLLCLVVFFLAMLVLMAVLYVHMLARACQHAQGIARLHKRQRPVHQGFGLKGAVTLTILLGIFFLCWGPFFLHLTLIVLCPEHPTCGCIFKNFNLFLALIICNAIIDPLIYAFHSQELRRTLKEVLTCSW
Method: as §1, §2

Row | Binder | Ki
6 | B1 | 0.79 nM
7 | B6 | 262 nM
8 | B7 | 1.17 nM
9 | B4 | 0.353 nM
10 | B8 | 4.28 nM
11 | B5 | 13 nM
12 | B9 | 4.89 nM

What follows are binders tested against T3, hMC5-R (human, UniProt P33032 1-325) in the same assay as above.
T3 construct: whole, on cells; Assayed as membranes of CHO-K1 cells expressing the receptor; also called hMC-R receptor subtype 5; melanocortin-5 receptor (MC5-R)
T3 sequence (P33032 whole entry): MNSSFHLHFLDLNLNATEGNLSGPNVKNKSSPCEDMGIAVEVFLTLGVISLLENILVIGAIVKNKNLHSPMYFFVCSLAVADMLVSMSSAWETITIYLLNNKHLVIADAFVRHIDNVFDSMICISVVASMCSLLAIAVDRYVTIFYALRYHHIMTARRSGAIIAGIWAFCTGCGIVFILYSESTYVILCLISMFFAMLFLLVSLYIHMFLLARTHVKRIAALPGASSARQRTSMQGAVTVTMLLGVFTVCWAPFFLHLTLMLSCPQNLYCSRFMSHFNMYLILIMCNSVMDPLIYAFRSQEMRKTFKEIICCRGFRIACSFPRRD
Method: as §1, §2

Row | Binder | Ki
13 | B1 | 493 nM
14 | B6 | 1460 nM
15 | B2 | 339 nM
16 | B3 | 203 nM
17 | B8 | 12.5 nM
18 | B5 | 40 nM
19 | B9 | 11.1 nM

The binders below were run against T4, hMC4-R (human, UniProt P32245 1-332) in the same assay as above.
T4 construct: whole, on cells; Assayed as membranes of CHO-K1 cells expressing the receptor; also called hMC-R receptor subtype 4; melanocortin-4 (MC4-R)
T4 sequence (P32245 whole entry): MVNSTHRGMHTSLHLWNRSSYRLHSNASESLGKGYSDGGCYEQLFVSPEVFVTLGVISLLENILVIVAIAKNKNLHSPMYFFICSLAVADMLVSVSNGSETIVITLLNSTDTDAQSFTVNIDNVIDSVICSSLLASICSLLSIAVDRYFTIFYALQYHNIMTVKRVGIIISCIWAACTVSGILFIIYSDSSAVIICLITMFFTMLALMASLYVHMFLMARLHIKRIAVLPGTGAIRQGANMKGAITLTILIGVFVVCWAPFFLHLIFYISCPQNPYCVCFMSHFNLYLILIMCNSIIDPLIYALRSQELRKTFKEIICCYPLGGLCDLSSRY
Method: as §1, §2

Row | Binder | Ki
20 | B6 | 96.4 nM
21 | B2 | 3.01 nM
22 | B3 | 3.37 nM
23 | B4 | 1.41 nM
24 | B8 | 9 nM
25 | B9 | 21.3 nM

What follows are binders tested against T5, human melanocortin receptor subtype 4 (hMC4-R) (human, UniProt P32245 1-332) (assay: [125I]-NDP-α-MSH competition, membranes).
T5 construct: whole, on cells; membranes of CHO-K1 cells
T5 sequence (P32245 whole entry): as above
Method: as §1, §2

Row | Binder | Ki
26 | B10 | 2.44 nM
27 | B11 | 2.44 nM
28 | B12 | 0.195 nM
29 | B13 | 0.0737 nM
30 | B14 | 0.442 nM
31 | B15 | 0.446 nM
32 | B16 | 3.53 nM

The binders below were run against T6, human melanocortin receptor subtype 1 (hMC1-R) (human, UniProt Q01726 1-317) (assay: [125I]-NDP-α-MSH competition, membranes).
T6 construct: whole, on cells; membranes of CHO-K1 cells
T6 sequence (Q01726 whole entry): as the sequence (Q01726 whole entry) above
Method: as §1, §2

Row | Binder | Ki
33 | B10 | 8.59 nM
34 | B11 | 5.68 nM
35 | B17 | 11.9 nM
36 | B12 | 11.9 nM
37 | B18 | 2.48 nM
38 | B13 | 2.63 nM
39 | B14 | 3 nM
40 | B19 | 14.3 nM
41 | B20 | 200 nM
42 | B15 | 5.66 nM
43 | B16 | 12.9 nM

The binders below were run against T7, human melanocortin receptor subtype 5 (hMC5-R) (human, UniProt P33032 1-325) (assay: [125I]-NDP-α-MSH competition, membranes).
T7 construct: whole, on cells; membranes of CHO-K1 cells
T7 sequence (P33032 whole entry): as the sequence (P33032 whole entry) above
Method: as §1, §2

Row | Binder | Ki
44 | B10 | 7760 nM
45 | B11 | 4220 nM
46 | B17 | 73.9 nM
47 | B18 | 9.17 nM
48 | B13 | 11.6 nM
49 | B14 | 15.5 nM
50 | B19 | 67.8 nM
51 | B15 | 6.23 nM
52 | B16 | 27.1 nM
